In PMC10638432, “Biodistribution and function of coupled polymer-DNA origami nanostructures”:

Target: recombinant human TNF-alpha (biotinylated, R&D Systems BT210) (human, UniProt P01375 77-233)
Test: flow cytometry (FACS) bead binding; TT linker did not affect binding; PBS-/- (no Ca/Mg) with 0.005% Tween-20, 1 h at 37 C, biotinylated TNFa on streptavidin magnetic beads; pH not stated
Conditions: protein: commercial; tags: biotin; chain copies: 3; label: 5' ATTO647N

Sequence of recombinant human TNF-alpha (biotinylated, R&D Systems BT210) (P01375 77-233): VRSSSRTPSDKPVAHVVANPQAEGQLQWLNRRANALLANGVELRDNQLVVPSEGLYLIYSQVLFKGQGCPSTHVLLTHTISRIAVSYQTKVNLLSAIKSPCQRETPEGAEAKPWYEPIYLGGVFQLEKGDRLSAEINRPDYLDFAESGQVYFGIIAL

B1: TNFa aptamer polyT linker (hTNFa long rod aptamer) (ssDNA)
DNA: TTTGGTGGATGGCGCAGTCGGCGACAA
  binding result: binds
